Experimental data from US20230051266A1 (ABL BIO, published 2023).
Positions count from the first letter of the chain named. Numbers in names are those of the source.

T1: human BCMA on cells (CHOK1-hBCMA; H929 endogenous BCMA) (human, UniProt Q02223 1-184)
T1 construct: Cell-surface BCMA in FACS; also called mammalian expressed BCMA; native antigen
T1 sequence: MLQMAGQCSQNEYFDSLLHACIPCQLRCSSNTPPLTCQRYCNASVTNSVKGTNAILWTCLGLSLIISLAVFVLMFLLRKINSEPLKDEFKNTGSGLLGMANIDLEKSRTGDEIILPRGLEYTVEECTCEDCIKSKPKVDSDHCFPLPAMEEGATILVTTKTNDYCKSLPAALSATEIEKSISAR

B1: 5A6(NA)xAB41 (bispecific antibody, human IgG1, lambda, N297A)
heavy: not shown
light: QSVLTQPPSASGTPGQRVTISCQGDSLRSYYVNWYQQLPGTAPKLLIYDHSKRPTGVPDRFSGSKSGTSASLAISGLRSEDEADYYCQSYDSSTVVFGGGTKLTVLGQPKAAPSVTLFPPSSEELQANKATLVCLISDFYPGAVTVAWKADSSPVKAGVETTTPSKQSNNKYAASSYLSLTPEQWKSHRSYSCQVTHEGSTVEKTVAPAECS
notes: IgG1 N297A-scFv (VL-(G4S)4-VH)
B2: 5A6(NA)x41B01 (bispecific antibody, human IgG1, lambda, N297A)
heavy: not shown
light: B1 light
notes: IgG1 N297A-scFv; also called 5A6(NA) x41B01 (1A10)
B3: 5A6(NA)x41B02 (bispecific antibody, human IgG1, lambda, N297A)
heavy: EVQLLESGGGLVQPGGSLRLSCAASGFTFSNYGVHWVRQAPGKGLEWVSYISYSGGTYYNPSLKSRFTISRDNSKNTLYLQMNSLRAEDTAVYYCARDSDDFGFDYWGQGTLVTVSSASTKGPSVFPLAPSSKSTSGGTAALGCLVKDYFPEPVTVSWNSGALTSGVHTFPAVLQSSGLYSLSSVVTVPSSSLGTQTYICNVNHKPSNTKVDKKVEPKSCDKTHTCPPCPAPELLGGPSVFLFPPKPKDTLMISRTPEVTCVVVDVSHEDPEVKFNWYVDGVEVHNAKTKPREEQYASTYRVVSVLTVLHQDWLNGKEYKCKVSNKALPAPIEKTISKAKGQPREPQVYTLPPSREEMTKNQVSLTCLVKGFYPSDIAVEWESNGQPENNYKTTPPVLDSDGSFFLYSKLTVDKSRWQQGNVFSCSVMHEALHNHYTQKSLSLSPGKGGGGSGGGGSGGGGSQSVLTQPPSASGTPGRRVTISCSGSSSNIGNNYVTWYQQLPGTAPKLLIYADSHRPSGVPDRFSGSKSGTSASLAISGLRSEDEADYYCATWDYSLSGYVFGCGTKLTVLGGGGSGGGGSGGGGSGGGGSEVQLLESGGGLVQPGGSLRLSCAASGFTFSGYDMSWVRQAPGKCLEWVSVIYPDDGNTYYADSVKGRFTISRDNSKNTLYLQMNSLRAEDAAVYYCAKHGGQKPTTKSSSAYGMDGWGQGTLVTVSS
light: B1 light
notes: IgG1 N297A-scFv (VL-(G4S)4-VH); also called 5A6(NA) x41B02 (1A12)
B4: 5B5(NA)x41B02 (bispecific antibody, human IgG1, kappa, N297A)
heavy: not shown
light: EIVLTQSPGTLSLSPGERATLSCRASQGIDSYVAWYQQKPGQAPRLLIYDASLRATGIPDRFSGSGSGTDFTLTISRLEPEDFAVYYCQQYNSWPITFGQGTKLEIKRTVAAPSVFIFPPSDEQLKSGTASVVCLLNNFYPREAKVQWKVDNALQSGNSQESVTEQDSKDSTYSLSSTLTLSKADYEKHKVYACEVTHQGLSSPVTKSFNRGEC
notes: IgG1 N297A-scFv (VL-(G4S)4-VH); also called 5B5(NA) x41B02 (1A12)
B5: 5B5(NA)x41B01 (bispecific antibody, human IgG1, kappa, N297A)
heavy: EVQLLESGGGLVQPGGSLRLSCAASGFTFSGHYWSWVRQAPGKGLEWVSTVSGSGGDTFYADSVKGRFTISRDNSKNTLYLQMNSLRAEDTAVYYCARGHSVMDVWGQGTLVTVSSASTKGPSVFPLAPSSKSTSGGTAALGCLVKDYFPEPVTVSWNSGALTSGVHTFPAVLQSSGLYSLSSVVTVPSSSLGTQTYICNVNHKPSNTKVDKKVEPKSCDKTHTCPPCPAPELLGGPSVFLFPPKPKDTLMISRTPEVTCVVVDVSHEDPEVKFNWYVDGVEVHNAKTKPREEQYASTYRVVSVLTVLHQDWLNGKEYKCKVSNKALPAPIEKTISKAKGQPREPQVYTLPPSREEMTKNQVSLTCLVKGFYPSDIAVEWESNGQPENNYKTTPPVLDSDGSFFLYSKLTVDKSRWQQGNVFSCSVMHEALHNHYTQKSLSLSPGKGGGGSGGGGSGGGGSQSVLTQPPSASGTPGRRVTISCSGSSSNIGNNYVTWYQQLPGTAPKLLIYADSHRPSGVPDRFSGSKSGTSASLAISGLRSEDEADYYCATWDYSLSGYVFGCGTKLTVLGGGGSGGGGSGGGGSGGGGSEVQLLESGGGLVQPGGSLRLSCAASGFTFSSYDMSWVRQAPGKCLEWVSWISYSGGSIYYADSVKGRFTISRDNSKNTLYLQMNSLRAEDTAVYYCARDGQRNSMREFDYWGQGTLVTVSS
light: B4 light
notes: IgG1 N297A-scFv; also called 5B5(NA) x41B01 (1A10)
B6: 5D5(NA)x41B01 (bispecific antibody, human IgG1, kappa, N297A)
heavy: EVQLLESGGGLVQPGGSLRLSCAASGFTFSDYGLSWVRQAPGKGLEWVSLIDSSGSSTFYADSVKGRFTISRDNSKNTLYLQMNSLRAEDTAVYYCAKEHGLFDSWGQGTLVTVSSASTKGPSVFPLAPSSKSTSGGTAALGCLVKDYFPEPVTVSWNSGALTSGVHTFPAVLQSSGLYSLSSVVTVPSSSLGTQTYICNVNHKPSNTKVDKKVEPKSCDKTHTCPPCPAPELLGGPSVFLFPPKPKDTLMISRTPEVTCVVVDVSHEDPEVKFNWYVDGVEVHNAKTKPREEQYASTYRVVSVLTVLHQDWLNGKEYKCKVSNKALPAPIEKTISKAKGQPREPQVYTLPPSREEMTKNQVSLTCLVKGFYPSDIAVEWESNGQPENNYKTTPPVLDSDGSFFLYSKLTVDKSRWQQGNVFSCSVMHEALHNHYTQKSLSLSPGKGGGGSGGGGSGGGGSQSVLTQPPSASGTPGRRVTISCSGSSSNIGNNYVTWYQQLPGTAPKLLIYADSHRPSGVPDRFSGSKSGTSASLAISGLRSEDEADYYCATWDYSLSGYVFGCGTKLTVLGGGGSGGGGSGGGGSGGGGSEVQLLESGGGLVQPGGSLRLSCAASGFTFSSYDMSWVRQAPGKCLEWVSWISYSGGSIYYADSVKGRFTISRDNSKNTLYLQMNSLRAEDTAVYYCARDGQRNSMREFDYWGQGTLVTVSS
light: B4 light with R24K, G28D, S31D, Y32D, V33I, A34N, Y91S, N92L, S93R, W94T
notes: IgG1 N297A-scFv; also called 5D5(NA) x41B01 (1A10)
B7: 5D5(NA)xAB41 (bispecific antibody, human IgG1, kappa, N297A)
heavy: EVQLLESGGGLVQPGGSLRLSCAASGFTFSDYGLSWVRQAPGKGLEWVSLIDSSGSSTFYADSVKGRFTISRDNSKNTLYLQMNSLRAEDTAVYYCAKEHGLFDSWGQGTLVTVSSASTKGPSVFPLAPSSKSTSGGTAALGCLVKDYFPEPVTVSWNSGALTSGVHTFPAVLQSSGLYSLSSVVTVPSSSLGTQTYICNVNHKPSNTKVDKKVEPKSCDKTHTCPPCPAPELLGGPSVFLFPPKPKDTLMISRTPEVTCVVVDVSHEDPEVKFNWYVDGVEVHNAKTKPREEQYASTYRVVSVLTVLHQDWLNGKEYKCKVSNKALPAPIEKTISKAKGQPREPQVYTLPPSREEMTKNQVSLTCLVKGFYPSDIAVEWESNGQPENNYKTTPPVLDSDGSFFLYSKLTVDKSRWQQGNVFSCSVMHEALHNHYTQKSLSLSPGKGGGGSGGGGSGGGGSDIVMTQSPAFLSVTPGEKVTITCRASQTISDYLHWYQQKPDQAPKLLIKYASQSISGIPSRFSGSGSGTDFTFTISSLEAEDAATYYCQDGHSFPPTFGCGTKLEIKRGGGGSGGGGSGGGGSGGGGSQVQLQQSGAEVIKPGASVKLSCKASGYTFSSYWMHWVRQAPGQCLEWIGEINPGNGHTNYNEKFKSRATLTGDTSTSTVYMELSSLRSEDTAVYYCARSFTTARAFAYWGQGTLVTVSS
light: B4 light with R24K, G28D, S31D, Y32D, V33I, A34N, Y91S, N92L, S93R, W94T
notes: as for B1
B8: 5D5(NA)x41B02 (bispecific antibody, human IgG1, kappa, N297A)
heavy: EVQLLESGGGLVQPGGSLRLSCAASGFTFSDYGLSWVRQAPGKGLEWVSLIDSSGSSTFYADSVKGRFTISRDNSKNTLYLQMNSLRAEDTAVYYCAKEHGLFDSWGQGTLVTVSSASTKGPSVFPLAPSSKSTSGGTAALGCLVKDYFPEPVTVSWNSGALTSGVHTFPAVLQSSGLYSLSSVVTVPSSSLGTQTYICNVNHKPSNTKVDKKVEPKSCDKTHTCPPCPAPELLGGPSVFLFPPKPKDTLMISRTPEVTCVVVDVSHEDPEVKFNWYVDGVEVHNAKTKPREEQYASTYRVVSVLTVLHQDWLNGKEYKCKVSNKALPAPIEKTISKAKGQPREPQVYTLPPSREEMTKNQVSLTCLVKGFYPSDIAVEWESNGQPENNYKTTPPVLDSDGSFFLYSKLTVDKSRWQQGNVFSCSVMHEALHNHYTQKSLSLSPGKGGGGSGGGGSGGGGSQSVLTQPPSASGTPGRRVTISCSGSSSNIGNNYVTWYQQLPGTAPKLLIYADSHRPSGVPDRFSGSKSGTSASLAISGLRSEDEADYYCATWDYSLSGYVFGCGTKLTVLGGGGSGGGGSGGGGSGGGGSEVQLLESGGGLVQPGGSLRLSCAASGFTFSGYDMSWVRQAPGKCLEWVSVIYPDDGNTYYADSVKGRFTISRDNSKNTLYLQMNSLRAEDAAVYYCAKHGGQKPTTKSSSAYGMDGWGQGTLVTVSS
light: B4 light with R24K, G28D, S31D, Y32D, V33I, A34N, Y91S, N92L, S93R, W94T
notes: IgG1 N297A-scFv (VL-(G4S)4-VH); also called 5D5(NA) x41B02 (1A12)
B9: 5B5(NA)xAB41 (bispecific antibody, human IgG1, kappa, N297A)
heavy: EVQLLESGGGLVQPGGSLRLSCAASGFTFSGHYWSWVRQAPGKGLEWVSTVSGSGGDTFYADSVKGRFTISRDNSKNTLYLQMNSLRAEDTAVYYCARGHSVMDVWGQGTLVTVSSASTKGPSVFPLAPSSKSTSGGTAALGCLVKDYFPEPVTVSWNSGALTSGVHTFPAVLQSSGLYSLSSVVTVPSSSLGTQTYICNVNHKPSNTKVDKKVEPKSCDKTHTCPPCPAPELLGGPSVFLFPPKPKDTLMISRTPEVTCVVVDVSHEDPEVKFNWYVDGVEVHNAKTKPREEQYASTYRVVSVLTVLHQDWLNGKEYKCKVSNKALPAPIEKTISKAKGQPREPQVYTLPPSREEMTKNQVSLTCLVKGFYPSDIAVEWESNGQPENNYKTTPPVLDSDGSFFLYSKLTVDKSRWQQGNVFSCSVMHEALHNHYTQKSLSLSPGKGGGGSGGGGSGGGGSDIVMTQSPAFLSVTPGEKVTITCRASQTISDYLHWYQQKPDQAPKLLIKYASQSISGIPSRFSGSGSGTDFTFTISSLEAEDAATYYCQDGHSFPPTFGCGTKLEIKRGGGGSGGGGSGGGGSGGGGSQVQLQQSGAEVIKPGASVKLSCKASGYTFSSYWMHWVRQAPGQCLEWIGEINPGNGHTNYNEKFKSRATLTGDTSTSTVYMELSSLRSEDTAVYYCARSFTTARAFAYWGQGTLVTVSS
light: B4 light
notes: as for B1

Target: T2, human 4-1BB on GloResponse NFkB-luc2/4-1BB Jurkat cells (human, UniProt Q07011 24-255)
T2 sequence (Q07011 24-255): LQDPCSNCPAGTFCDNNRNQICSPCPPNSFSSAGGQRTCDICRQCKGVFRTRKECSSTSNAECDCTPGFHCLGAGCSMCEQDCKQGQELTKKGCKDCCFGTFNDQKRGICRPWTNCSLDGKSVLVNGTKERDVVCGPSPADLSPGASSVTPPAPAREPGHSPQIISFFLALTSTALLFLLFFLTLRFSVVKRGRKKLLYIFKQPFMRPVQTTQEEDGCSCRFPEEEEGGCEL
Assay: cell-based or functional assay

4-1BB reporter bioassay (NFkB-luc2/4-1BB Jurkat) with CHOK1-hBCMA cells, EC50 [nM]	Binder
0.0397	B1
0.0616	B2
0.0413	B3
0.003	B4
0.0316	B5
0.0691	B6
0.0426	B7
0.0314	B8
0.0741	B9

Target: T2, human 4-1BB on GloResponse …
Assay: cell-based or functional assay
Remark: another data set of the same source

4-1BB reporter bioassay (NFkB-luc2/4-1BB Jurkat) with H929 cells, EC50 [nM]	Binder
3.16	B2
14.3	B3
12.1	B4
5.76	B5
5.35	B6
10.9	B8

Target: T1, human BCMA on cells (CHOK1-hBCMA; H929 …)
Assay: FACS, 100 nM antibody, H929 cells
Protocol: (§1) To evaluate the antigen binding property, the antibody candidates were analyzed for their bindings to BCMA expressed cells by FACS. Briefly, CHOK1 expressing human BCMA (CHOK1-hBCMA) or H929 expressing endogenous BCMA cells were treated with the 100 nM of indicated antibodies at 4° C. for 1 hr. CHOK1 cells were used for BCMA-negative control. After washing by FACS buffer (1% (w/v) BSA in PBS), cells were incubated with the FTTC-anti-human IgG antibody at 4° C. for 1 hr and then subjected to FACS analysis. As shown in FIGS. 2d-2f, the anti-BCMAx4-1BB antibodies bind to BCMA expressed CHOK1-hBCMA and H929 cell lines but not BCMA negative CHOK1.

quantified FACS signal (name not given)	Binder
39.9	B1
43.8	B2
40.3	B3
14.9	B4
17.6	B5
17.9	B6
19.7	B7
20.2	B8
14.1	B9

Target: T1, human BCMA on cells (CHOK1-hBCMA; H929 …)
Assay: FACS, 100 nM antibody, CHOK1-hBCMA cells
Protocol: as §1

quantified FACS signal (name not given)	Binder
636	B1
652	B2
646	B3
484	B4
493	B5
579	B6
585	B7
602	B8
477	B9
